From patent US20210388087A1 (Chugai, published 2021)
Substitutions are numbered along the chain they refer to. Names and notes keep the numbering of the source. Blank lines part the entries; values can stand above or below the binder they belong to.

Molecular target: T1, Human CD137 ECD (human)
T1 construct: also called 4-1BB
Assay: single mutant vs template dBBDu183H

T1 sequence (chain, as listed by the source limits assumed): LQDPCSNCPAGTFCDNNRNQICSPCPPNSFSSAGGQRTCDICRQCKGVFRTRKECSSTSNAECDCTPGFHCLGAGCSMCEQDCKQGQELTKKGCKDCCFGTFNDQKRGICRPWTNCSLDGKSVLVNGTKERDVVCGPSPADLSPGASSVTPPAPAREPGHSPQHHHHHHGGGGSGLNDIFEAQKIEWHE

fold change of affinity: 0 fold
B1: H183/L072 VH D101I (antibody, name in Kabat numbering, V domains shown)
VH: QVQLVESGGGLVQPGRSLRLSCAASGFTFSNAWMHWVRQAPGKGLEWVAQIKDKGNAYAAYYAPSVKGRFTISRDDSKNSIYLQMNSLKTEDTAVYYCHYVHYASASTVLPAFGVIAWGQGTTVTVSS
VL: DIVMTQSPLSLPVTPGEPASISCQASQELVHMNRNTYLHWYQQKPGQAPRLLIYKVSNRFPGVPDRFSGSGSGTDFTLKISRVEAEDVGVYYCAQGTSVPFTFGQGTKLEIK

fold change of affinity: 0.5 fold
B2: H183/L072 VH F100gA (antibody, name in Kabat numbering, V domains shown)
VH: B1 VH with F113A, I116D
VL: B1 VL

fold change of affinity: 0.5 fold
B3: H183/L072 VH F27L (antibody, name in Kabat numbering, V domains shown)
VH: B1 VH with F27L, I116D
VL: B1 VL

fold change of affinity: 0.3 fold
B4: H183/L072 VH G26I (antibody, name in Kabat numbering, V domains shown)
VH: B1 VH with G26I, I116D
VL: B1 VL

fold change of affinity: 0.4 fold
B5: H183/L072 VH F27Y (antibody, name in Kabat numbering, V domains shown)
VH: B1 VH with F27Y, I116D
VL: B1 VL

fold change of affinity: 0.3 fold
B6: H183/L072 VH F27N (antibody, name in Kabat numbering, V domains shown)
VH: B1 VH with F27N, I116D
VL: B1 VL

fold change of affinity: 0.3 fold
B7: H183/L072 VH F27W (antibody, name in Kabat numbering, V domains shown)
VH: B1 VH with F27W, I116D
VL: B1 VL

fold change of affinity: 0.6 fold
B8: H183/L072 VH F100gM (antibody, name in Kabat numbering, V domains shown)
VH: B1 VH with F113M, I116D
VL: B1 VL

fold change of affinity: 0.3 fold
B9: H183/L072 VH G26Y (antibody, name in Kabat numbering, V domains shown)
VH: B1 VH with G26Y, I116D
VL: B1 VL

fold change of affinity: 0.5 fold
B10: H183/L072 VH G26N (antibody, name in Kabat numbering, V domains shown)
VH: B1 VH with G26N, I116D
VL: B1 VL

fold change of affinity: 0.2 fold
B11: H183/L072 VH F27Q (antibody, name in Kabat numbering, V domains shown)
VH: B1 VH with F27Q, I116D
VL: B1 VL

fold change of affinity: 0 fold
B12: H183/L072 VH D101L (antibody, name in Kabat numbering, V domains shown)
VH: B1 VH with I116L
VL: B1 VL

fold change of affinity: 0.1 fold
B13: H183/L072 VH F29V (antibody, name in Kabat numbering, V domains shown)
VH: B1 VH with F29V, I116D
VL: B1 VL

fold change of affinity: 0.5 fold
B14: H183/L072 VH G26E (antibody, name in Kabat numbering, V domains shown)
VH: B1 VH with G26E, I116D
VL: B1 VL

fold change of affinity: 0 fold
B15: H183/L072 VH D101M (antibody, name in Kabat numbering, V domains shown)
VH: B1 VH with I116M
VL: B1 VL

fold change of affinity: 0.2 fold
B16: H183/L072 VH F29Y (antibody, name in Kabat numbering, V domains shown)
VH: B1 VH with F29Y, I116D
VL: B1 VL

fold change of affinity: 0.3 fold
B17: H183/L072 VH F27H (antibody, name in Kabat numbering, V domains shown)
VH: B1 VH with F27H, I116D
VL: B1 VL

fold change of affinity: 1.2 fold
B18: H183/L072 VH F100gL (antibody, name in Kabat numbering, V domains shown)
VH: B1 VH with F113L, I116D
VL: B1 VL

fold change of affinity: 0.8 fold
B19: H183/L072 VH G52cA (antibody, name in Kabat numbering, V domains shown)
VH: B1 VH with G55A, I116D
VL: B1 VL

fold change of affinity: 0.4 fold
B20: H183/L072 VH G26H (antibody, name in Kabat numbering, V domains shown)
VH: B1 VH with G26H, I116D
VL: B1 VL

fold change of affinity: 0.3 fold
B21: H183/L072 VH F27S (antibody, name in Kabat numbering, V domains shown)
VH: B1 VH with F27S, I116D
VL: B1 VL

fold change of affinity: 0.2 fold
B22: H183/L072 VH F27R (antibody, name in Kabat numbering, V domains shown)
VH: B1 VH with F27R, I116D
VL: B1 VL

fold change of affinity: 0.4 fold
B23: H183/L072 VH G26Q (antibody, name in Kabat numbering, V domains shown)
VH: B1 VH with G26Q, I116D
VL: B1 VL

fold change of affinity: 0.3 fold
B24: H183/L072 VH F29M (antibody, name in Kabat numbering, V domains shown)
VH: B1 VH with F29M, I116D
VL: B1 VL

fold change of affinity: 0.3 fold
B25: H183/L072 VH F29L (antibody, name in Kabat numbering, V domains shown)
VH: B1 VH with F29L, I116D
VL: B1 VL

fold change of affinity: 0.5 fold
B26: H183/L072 VH F27D (antibody, name in Kabat numbering, V domains shown)
VH: B1 VH with F27D, I116D
VL: B1 VL

fold change of affinity: 0.9 fold
B27: H183/L072 VH F27M (antibody, name in Kabat numbering, V domains shown)
VH: B1 VH with F27M, I116D
VL: B1 VL

fold change of affinity: 0.3 fold
B28: H183/L072 VH F27V (antibody, name in Kabat numbering, V domains shown)
VH: B1 VH with F27V, I116D
VL: B1 VL

fold change of affinity: 0.3 fold
B29: H183/L072 VH F27P (antibody, name in Kabat numbering, V domains shown)
VH: B1 VH with F27P, I116D
VL: B1 VL

fold change of affinity: 0.4 fold
B30: H183/L072 VH G26A (antibody, name in Kabat numbering, V domains shown)
VH: B1 VH with G26A, I116D
VL: B1 VL

fold change of affinity: 0.3 fold
B31: H183/L072 VH F27T (antibody, name in Kabat numbering, V domains shown)
VH: B1 VH with F27T, I116D
VL: B1 VL

fold change of affinity: 1 fold
B32: H183/L072 VH F100gI (antibody, name in Kabat numbering, V domains shown)
VH: B1 VH with F113I, I116D
VL: B1 VL

fold change of affinity: 0.1 fold
B33: H183/L072 VH F29W (antibody, name in Kabat numbering, V domains shown)
VH: B1 VH with F29W, I116D
VL: B1 VL

fold change of affinity: 0.3 fold
B34: H183/L072 VH F29I (antibody, name in Kabat numbering, V domains shown)
VH: B1 VH with F29I, I116D
VL: B1 VL

fold change of affinity: 0.3 fold
B35: H183/L072 VH G26F (antibody, name in Kabat numbering, V domains shown)
VH: B1 VH with G26F, I116D
VL: B1 VL

fold change of affinity: 0.4 fold
B36: H183/L072 VH F27G (antibody, name in Kabat numbering, V domains shown)
VH: B1 VH with F27G, I116D
VL: B1 VL

fold change of affinity: 0.4 fold
B37: H183/L072 VH G26S (antibody, name in Kabat numbering, V domains shown)
VH: B1 VH with G26S, I116D
VL: B1 VL

fold change of affinity: 0.2 fold
B38: H183/L072 VH F27E (antibody, name in Kabat numbering, V domains shown)
VH: B1 VH with F27E, I116D
VL: B1 VL

fold change of affinity: 0.1 fold
B39: H183/L072 VH G26P (antibody, name in Kabat numbering, V domains shown)
VH: B1 VH with G26P, I116D
VL: B1 VL

fold change of affinity: 0.3 fold
B40: H183/L072 VH G26L (antibody, name in Kabat numbering, V domains shown)
VH: B1 VH with G26L, I116D
VL: B1 VL

fold change of affinity: 0.3 fold
B41: H183/L072 VH G26W (antibody, name in Kabat numbering, V domains shown)
VH: B1 VH with G26W, I116D
VL: B1 VL

fold change of affinity: 0.5 fold
B42: H183/L072 VH G26T (antibody, name in Kabat numbering, V domains shown)
VH: B1 VH with G26T, I116D
VL: B1 VL

fold change of affinity: 0.8 fold
B43: H183/L072 VH G26D (antibody, name in Kabat numbering, V domains shown)
VH: B1 VH with G26D, I116D
VL: B1 VL

fold change of affinity: 0.1 fold
B44: H183/L072 VH F29P (antibody, name in Kabat numbering, V domains shown)
VH: B1 VH with F29P, I116D
VL: B1 VL

fold change of affinity: 0.2 fold
B45: H183/L072 VH F27K (antibody, name in Kabat numbering, V domains shown)
VH: B1 VH with F27K, I116D
VL: B1 VL

fold change of affinity: 0.1 fold
B46: H183/L072 VH F29T (antibody, name in Kabat numbering, V domains shown)
VH: B1 VH with F29T, I116D
VL: B1 VL

fold change of affinity: 0.3 fold
B47: H183/L072 VH G26R (antibody, name in Kabat numbering, V domains shown)
VH: B1 VH with G26R, I116D
VL: B1 VL
